Source: paper PMC11309785, “Vaccine priming of rare HIV broadly neutralizing antibody precursors in non-human primates” (Science (New York, N.Y.), 2024)

Target: T1, N332-GT5 trimer, C-terminal His-tagged (captured ligand of the SPR) (HIV-1 isolate BG505 (N332-GT5 …, stabilised))
T1 construct: HIV-1 envelope (Env) of isolate BG505, gp120 part of the germline-targeting trimer N332-GT5, co-expressed with furin; S18, coordinates in PDB 8T4K; HIV-1 envelope (Env) of isolate BG505, gp41 ectodomain part of the trimer N332-GT5; MD65 = MD39 stabilising mutations plus V505T, V513A, V518S, L520D; also called N332-GT5 WT; source: 293F cells, co-transfected with furin, purified (HIS-TRAP, SEC); …
Experiment: SPR; ProteOn XPR36, HC30M XanTec chip; His-tagged trimer (300 to 400 RU, 1 ug/mL) captured by immobilised rabbit anti-His-tag pAb, Fab flowed as analyte at 30 ul/min for 3 min, 5 min dissociation; 1x HBS-EP+ pH 7.4 with BSA 1 mg/ml; equilibrium or kinetic (Langmuir) fits; highest concentration 2x10^-5 M, approximate upper affinity limit 1.6x10^-11 M
Details: both partners purified

Binder | Kd [pM]
RM_N332_32 Fab (Fab, V domains shown, human Fab heavy chain constant region from the vector pFabCW; human kappa constant region from the vector pCW-CLig-hk; Macaque variable regions on human constant regions; The deposited model may hold the Fv only; also called BG18 type I Fab with kappa light chain; source: FreeStyle 293F or ExpiCHO cells, purified (CaptureSelect CH1-XL)) VH: QLQLQESGPGLVKPSETLSLTCAVSGGSISDYCWNWIRQPPGKGLEWIGYIGGSSGSTYYNPSLKGRVTISADTSENRFSLKLSSVTAADTAVYYCARSPITVFGVVIFDEYTTGNLDLWGPGTPISISS VL: DIQMTQSPSSLSASVGDKVTITCHASQDISSWLAWYQQKPGKAPKPLIYYASSLQSGVPSRFSGSGSGTDYTLTITSLQPEDFATYYCQQYDDLPFTFGPGTKLDIK | 81
RM_N332_36 Fab (Fab, V domains shown, human Fab heavy chain constant region from the vector pFabCW; human lambda constant region from the vector pCW-CLig-hL2; Macaque variable regions on human constant regions; The deposited model may hold the Fv only; also called BG18 type I Fab with D3-41 in alternate reading frame; source: FreeStyle 293F or ExpiCHO cells, purified (CaptureSelect CH1-XL)) VH: QVTLKESGPALVKPTQTLTLTCTFSGFSLSTNYMGVDWIRQPPGKALEWLARIYWNDDKYYSTSLKSRLTISKDTSKNQVVLTMSNMDPVDTATYYCARVKLSVWGVLQFFEWSDYGLDSWGQGVVVTVSS VL: SYVLTQPPSVSVSPGQTARITCGADNIGSQSVHWYQQKSPQAPVLVISADTERPSGIPERFSGSNSGNTATLTISGVEAGDEADYYCQVWDSDSKYALFGGGTRLTVL | 38
